This note sets out measurements from patent publication US20100055117A1 (published 2010).

The target of assay [1] is T1, FMNL1/KW13 peptide on HLA-A*02:01 (human).
T1 peptide: RLPERMTTL
Kind of assay: multimer staining.

The target in assay [2] is T2, FRL (murine FMNL1 homologue) peptide on HLA-A*02:01 (human).
T2 peptide: RLPERMNTL
Kind of assay: killing.

B1: TCR of T cell clone SC22 (Vα14J41; Vβ14J2.5) (TCR)
alpha TRAV38-2/DV8*01; Vα14 TRAJ41*01; J41 CDR3: AYENSGYALNF
beta TRBV27*01; Vβ14 TRBJ2-5*01; Jβ2.5 CDR3: ASSFLGETQYF
With B1, the binding result in assay [1] and in assay [2] was “recognises” in each case.
